Patent US20260374880 (published 2026)
Residue numbers refer to the chain shown, from its start. Where “and” joins values, the source holds several entries; their conditions need not be identical. Equal entries are not always repeated.

T1: TGFbR1 ECD I130G (human)
T1 chain: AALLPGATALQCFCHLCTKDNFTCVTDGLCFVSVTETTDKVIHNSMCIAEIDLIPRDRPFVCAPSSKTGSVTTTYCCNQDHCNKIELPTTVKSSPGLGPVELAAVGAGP

T2: human TGFbR1 ECD-133-huFc (human)
T2 chain: T1 chain with G106I

T3: TGFbR1 ECD P133A (human)
T3 chain: T1 chain with G106I, P109A

T4: human TGFbR1 ECD-133-myc(His)6 (human)
T4 chain: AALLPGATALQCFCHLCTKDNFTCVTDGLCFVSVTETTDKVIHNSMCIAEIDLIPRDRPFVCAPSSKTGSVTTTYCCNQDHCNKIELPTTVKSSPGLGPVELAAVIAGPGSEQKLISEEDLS

T5: TGFbR1 ECD V129G (human)
T5 chain: T1 chain with V105G, G106I

T6: endogenous TGFbR1 on cells (human)
T6 chain: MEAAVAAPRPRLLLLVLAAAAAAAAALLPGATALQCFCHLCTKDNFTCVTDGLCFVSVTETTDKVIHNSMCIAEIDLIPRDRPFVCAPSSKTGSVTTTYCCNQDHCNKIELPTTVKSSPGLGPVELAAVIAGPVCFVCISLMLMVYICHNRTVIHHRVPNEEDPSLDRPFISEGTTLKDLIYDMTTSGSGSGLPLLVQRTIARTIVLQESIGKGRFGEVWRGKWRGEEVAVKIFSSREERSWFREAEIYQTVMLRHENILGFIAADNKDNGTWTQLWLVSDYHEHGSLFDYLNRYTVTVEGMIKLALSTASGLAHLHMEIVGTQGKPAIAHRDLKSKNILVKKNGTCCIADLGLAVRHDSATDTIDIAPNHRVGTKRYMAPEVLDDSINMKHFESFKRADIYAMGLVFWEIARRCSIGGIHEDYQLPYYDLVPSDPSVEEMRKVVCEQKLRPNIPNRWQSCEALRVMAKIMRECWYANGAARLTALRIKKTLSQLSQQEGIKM

T7: human TGFbR1 ECD 33-125-myc(His)6 (human)
T7 chain: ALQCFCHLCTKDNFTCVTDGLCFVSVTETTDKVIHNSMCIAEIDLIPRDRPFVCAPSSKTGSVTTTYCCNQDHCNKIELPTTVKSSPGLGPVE

T8: TGFbR1 ECD G132A (human)
T8 chain: T1 chain with G106I, G108A

T9: murine TGFbR1 ECD-133-myc(His)6 (mouse, UniProt Q64729)
T9 chain: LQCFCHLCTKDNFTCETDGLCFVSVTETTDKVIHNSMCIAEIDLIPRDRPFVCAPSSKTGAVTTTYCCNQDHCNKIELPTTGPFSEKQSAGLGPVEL

T10: TGFbR1 ECD L126A (human)
T10 chain: T1 chain with L102A, G106I

B1: mAb #19 murine chimeric IgG1 (antibody, V domains shown)
VH: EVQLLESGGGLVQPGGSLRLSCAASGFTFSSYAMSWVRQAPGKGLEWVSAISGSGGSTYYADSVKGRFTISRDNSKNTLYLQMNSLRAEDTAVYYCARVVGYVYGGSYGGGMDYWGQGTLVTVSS
VL: DIQMTQSPSSLSASVGDRVTITCRASQSISSYLNWYQQKPGKAPKLLIYAASSLQSGVPSRFSGSGSGTDFTLTISSLQPEDFATYYCQQGYGPLTFGQGTKLEIK
B2: YU772-H05 (antibody, V domains shown)
VH: EVQLLESGGGLVQPGGSLRLSCAASGFTFSSYAMSWVRQAPGKGLEWVSAISGSGGTTYYADSVKGRFTISRDNSKNTLYLQMNSLRAEDTAVYYCARVVGYVFGGYYGGGMDYWGQGTLVTVSS
VL: B1 VL
B3: YU772-D10_VH-YU772-C01_VL (antibody, V domains shown)
VH: B2 VH with A33P, S54Y, T57S, F104Y, G105D, Y107S
VL: B1 VL with S30W
B4: YU772-A11 (antibody, V domains shown)
VH: B2 VH with T57Y, F104Y, G105D, Y107A
VL: B1 VL
B5: YU771-B12 (antibody, V domains shown)
VH: B2 VH with A33P, S54Y, T57S, F104Y, Y107S
VL: B1 VL
B6: YU772-D10 (antibody, V domains shown)
VH: B2 VH with A33P, S54Y, T57S, F104Y, G105D, Y107S
VL: B1 VL
B7: YU772-G04_VH-YU771-A09-VL (antibody, V domains shown)
VH: B2 VH with T28P, V100A, F104H, G105R, Y107F
VL: B1 VL with S30Y, Y32H, S53T, G91A
B8: Antibody 19 (parental) (antibody, V domains shown)
VH: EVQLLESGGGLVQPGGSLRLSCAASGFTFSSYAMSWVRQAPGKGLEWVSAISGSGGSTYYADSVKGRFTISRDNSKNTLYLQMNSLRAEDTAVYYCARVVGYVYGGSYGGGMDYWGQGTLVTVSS
VL: B1 VL
B9: YU771-E01 (antibody, V domains shown)
VH: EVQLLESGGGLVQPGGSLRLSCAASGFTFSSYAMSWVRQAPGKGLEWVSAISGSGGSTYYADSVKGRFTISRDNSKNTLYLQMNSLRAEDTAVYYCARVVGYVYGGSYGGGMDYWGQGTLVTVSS
VL: B1 VL with Q27E, A50G, S53F, S56W
B10: YU772-G12 (antibody, V domains shown)
VH: B2 VH with T28P, S31T, T57Y, F104Y, Y107S
VL: B1 VL
B11: YU771-A01 (antibody, V domains shown)
VH: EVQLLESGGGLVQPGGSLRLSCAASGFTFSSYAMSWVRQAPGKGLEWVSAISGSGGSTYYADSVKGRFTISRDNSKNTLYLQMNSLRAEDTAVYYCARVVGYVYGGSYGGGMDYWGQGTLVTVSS
VL: B1 VL with A50G, S53F, S56Y
B12: mAb #19 human IgG1-LALA (antibody, V domains shown)
VH: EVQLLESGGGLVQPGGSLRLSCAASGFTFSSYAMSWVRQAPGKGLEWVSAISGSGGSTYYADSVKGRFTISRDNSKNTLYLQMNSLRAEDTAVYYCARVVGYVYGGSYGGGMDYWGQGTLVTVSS
VL: B1 VL
B13: YU772-F11 (antibody, V domains shown)
VH: B2 VH with S31T, A33P, T57S, F104Y, G105R, Y107S
VL: B1 VL

Assays:
TGFbR1 ECD I130G = biological target: T1, TGFbR1 ECD I130G; test: ELISA
[1] = biological target: T2, human TGFbR1 ECD-133-huFc; test: BLI
TGFbR1 ECD P133A = biological target: T3, TGFbR1 ECD P133A; test: ELISA
[2] = biological target: T4, human TGFbR1 ECD-133-myc(His)6; test: SPR, biotinylated mAb
TGFbR1 ECD V129G = biological target: T5, TGFbR1 ECD V129G; test: ELISA
[3] = biological target: T4, human TGFbR1 ECD-133-myc(His)6; test: BLI
[4] = biological target: T6, endogenous TGFbR1 on cells; test: FACS, PC-3U cells
[5] = biological target: T7, human TGFbR1 ECD 33-125-myc(His)6; test: ELISA
TGFbR1 ECD G132A = biological target: T8, TGFbR1 ECD G132A; test: ELISA
[6] = biological target: T6, endogenous TGFbR1 on cells; test: FACS, RWPE cells
[7] = biological target: T9, murine TGFbR1 ECD-133-myc(His)6; test: BLI
[8] = biological target: T4, human TGFbR1 ECD-133-myc(His)6; test: SPR
TGFbR1 ECD L126A = biological target: T10, TGFbR1 ECD L126A; test: ELISA
[9] = biological target: T4, human TGFbR1 ECD-133-myc(His)6; test: ELISA
[10] = biological target: T4, human TGFbR1 ECD-133-myc(His)6; test: BLI
[11] = biological target: T4, human TGFbR1 ECD-133-myc(His)6; test: BLI
[12] = biological target: T2, human TGFbR1 ECD-133-huFc; test: ELISA

Binder | Kd [11] [nM] | EC50 [12] [µg/mL] | other results
B1 | – | – | binding result (TGFbR1 ECD I130G): no binding; Kd [1]: 13 nM; binding result (TGFbR1 ECD P133A): no binding; Kd [2]: 2.5 nM and 2.3 nM and 1.8 nM; binding result (TGFbR1 ECD V129G): no binding; Kd [3]: 3.7 nM; Kd [4]: 10.7 nM; binding result [5]: no binding; binding result (TGFbR1 ECD G132A): no binding; Kd [6]: 7.81 nM; Kd [7]: 18 nM; Kd [8]: 5.6 nM and 6.5 nM; binding result (TGFbR1 ECD L126A): no binding; IC50 [9]: 0.104 nM; Kd [10]: 3.74 nM
B2 | 12 | 0.03 | –
B3 | 7.3 | 0.0303 | –
B4 | 7.9 | 0.0314 | –
B5 | 16 | 0.0244 | –
B6 | 7.8 | 0.0225 | –
B7 | 8.8 | 0.0257 | –
B8 | 22 | 0.139 | –
B9 | 8.9 | 0.0231 | –
B10 | 8.7 | 0.0213 | –
B11 | 11 | 0.022 | –
B12 | – | – | Kd [3]: 5.9 nM; IC50 [9]: 0.139 nM
B13 | 7.6 | 0.0249 | –
